Patent publication US20240398942A1 (CHIA TAI TIANQING PHARMACEUTICAL GROUP, published 2024)

How the values were obtained:
[1] = molecular target: T1, full-length human CD40 on 293T-NF-κB-Luc-CD40 reporter cells (human, UniProt P25942 21-277); assay: flow cytometry (FACS) on 293T-CD40 cells stably expressing full-length human CD40, PE-labeled goat anti-human IgG Fc, MFI
T1 construct: Stably expressed full-length human CD40; also called uniprot P25942-1
Method: The binding of the anti-CD40 antibody to 293T-CD40 cells (prepared by Biosion) that stably express full-length human CD40 (uniprot #P25942-1, SEQ ID NO: 30) on the cell membrane was measured by flow cytometry (FACS). According to the instructions of lipofectamine 3000 transfection reagent (Thermo Fisher), 293T-CD40 cells were prepared by transfecting 293T cells with pCMV-T-P plasmid inserted with CD40 coding sequence between EcoRI and XbaI loci. Specifically, 293T-CD40 cells were harvested from cell culture flasks, washed twice, and resuspended in FACS buffer (phosphate buffered saline (PBS) containing 2% v/v of fetal bovine serum). The anti-CD40 antibody of the present application or the benchmark serially 4-fold diluted in the FACS buffer from 80 nM was added at 100 μL/well to a 96-well plate containing 2×10⁵ cells/well. The plate was incubated in an ice bath for 40 min. After the cells were washed twice with the FACS buffer, an affinity-purified R-phycoerythrin-labeled goat anti-human IgG (Fcγ fragment-specific, Jackson Immuno Research, Cat. No. 109-115-098, 1:1000 diluted in the FACS buffer) was added at 100 μL per well. After incubation at 4° C. for 40 min in the dark, the cells were washed thrice and resuspended in the FACS buffer. Fluorescence values were measured using Becton Dickinson FACS Canto II-HTS, and curves of fluorescence value vs. antibody concentration were plotted. Data were analyzed using Graphpad Prism software, and EC₅₀ values were obtained.

human CD40-Fc protein [2] = molecular target: T2, human CD40-Fc protein (human, biotinylated (sites not given) in the capture ELISA and the benchmark blocking ELISA; not biotinylated in the ligand blocking ELISA); assay: competitive ELISA: human CD40-Fc coated, antibody titrated, blocked ligand biotinylated human CD40L-his (95 ng/mL), streptavidin-HRP, OD(450-630)
T2 construct: also called biotinylated human CD40-Fc
Method: The ability of the anti-CD40 antibody to block the binding of CD40 to CD40L was determined by competitive ELISA. Briefly, a human CD40-Fc protein (amino acid residues 21-193 of SEQ ID NO: 30 linked to the N terminus of amino acid residues 99-330 of SEQ ID NO: 28) dissolved in the immobilization buffer (carbonate/bicarbonate buffer) at a concentration of 2 μg/mL was immobilized on a 96-well plate at 100 μL/well and incubated overnight at 4° C. The next day, the plate was washed once with a washing buffer (PBS+0.05% v/v of Tween-20, PBST) before a PBST containing 5% w/v of skim milk was added. The plate was then incubated at 37° C. for 2 h for blocking. The plate was then washed 4 times with the washing buffer.
The anti-CD40 antibody of the present application or the benchmark was serially 5-fold diluted from 200 nM in a PBST containing 2.5% w/v of skim milk, and the serially diluted anti-CD40 antibody or benchmark was added at 100 μL/well to a plate coated with CD40-Fc protein and incubated at 37° C. for 40 min. The plate was then washed 4 times with the washing buffer before a biotinylated human CD40L-his protein (Sino Biological Inc., Cat. No. 10239-H08E, 95 ng/mL) was added at 100 μL per well. The plate was then incubated for 40 min at 37° C. The plate was washed again with the washing buffer. Then, an HRP-labeled streptavidin (Jackson Immunoresearch, Cat. No. 016-030-084, 1:10000 diluted in PBST buffer) was added at 100 μL/well and the plate was incubated at 37° C. for 40 min. The plate was washed again with the washing buffer. Finally, TMB was added and the reaction was stopped by adding 1 M H₂SO₄. The absorbance of each well was read on a microplate reader using the dual wavelength mode (TMB detection wavelength: 450 nm, reference wavelength: 630 nm). Curves of OD(450-630) values vs. antibody concentration were plotted. Data were analyzed using Graphpad Prism software, and IC₅₀ values were obtained.

human CD40-Fc protein [3] = molecular target: T2, human CD40-Fc protein; assay: capture ELISA: antibody captured on coated goat anti-human IgG F(ab')2, biotinylated human CD40-Fc 1.15 nM, streptavidin-HRP, OD(450-630)
Method: The plate was washed once with a washing buffer (PBS+0.05% v/v of Tween-20, PBST) and then blocked with 200 μL/well blocking buffer (PBST containing 5% w/v of skim milk) for 2 h at 37° C. The plate was washed 4 times, and the anti-CD40 antibody of the present application, BM1, BM2, and a negative control hIgG (human immunoglobulin for intravenous injection (pH 4), Hualan Biological Engineering Inc.) serially 5-fold diluted from 66.7 nM in a PBST containing 2.5% w/v of skim milk was added at 100 μL per well. The plate was incubated for 40 min at 37° C. and washed 4 times. A biotinylated human CD40-Fc protein (amino acid residues 21-193 of SEQ ID NO: 30 linked to the N terminus of amino acid residues 99-330 of SEQ ID NO: 28, dissolved in PBST containing 2.5% w/v of skim milk at a concentration of 1.15 nM) was added at 100 μL/well to a 96-well plate coated with the anti-CD40 antibody. The plate was incubated at 37° C. for 40 min and washed 4 times. An HRP-labeled streptavidin (diluted at 1:10000 in PBST, Jackson Immuno Research, Cat. No. 016-030-084) was added at 100 μL/well, and the plate was incubated at 37° C. for another 40 min. After the last wash, 100 μL/well of ELISA substrate TMB (Innoreagents, Cat. No. TMB-S-002) was added and the plate was incubated at room temperature. After 3-10 min, the reaction was stopped by adding 1 M H₂SO₄ at 50 µL/well, and the absorbance of each well was read on a microplate reader using the dual wavelength mode (TMB detection wavelength: 450 nm, reference wavelength: 630 nm). Curves of OD(450-630) values vs. antibody concentration were plotted. Data were analyzed using Graphpad Prism software, and EC₅₀ values were obtained.

| Binder | EC50 [1] | IC50 (human CD40-Fc protein [2]) | EC50 (human CD40-Fc protein [3]) |
| --- | --- | --- | --- |
| BM2 (selicrelumab) (antibody, human IgG2, kappa, V domains shown, Benchmark antibody, prepared in-house; also called CD40-BM2; benchmark) VH: not shown VL: DIQMTQSPSSVSASVGDRVTITCRASQGIYSWLAWYQQKPGKAPNLLIYTASTLQSGVPSRFSGSGSGTDFTLTISSLQPEDFATYYCQQANIFPLTFGGGTKVEIKR | 3.52 nM | 7.22 nM | 0.72 nM |
| BM1 (dacetuzumab) (antibody, human IgG1, kappa, V domains shown, Benchmark antibody, prepared in-house; also called CD40-BM1; benchmark) VH: EVQLVESGGGLVQPGGSLRLSCAASGYSFTGYYIHWVRQAPGKGLEWVARVIPNAGGTSYNQKFKGRFTLSVDNSKNTAYLQMNSLRAEDTAVYYCAREGIYWWGQGTLVTVSS VL: DIQMTQSPSSLSASVGDRVTITCRSSQSLVHSNGNTFLHWYQQKPGKAPKLLIYTVSNRFSGVPSRFSGSGSGTDFTLTISSLQPEDFATYFCSQTTHVPWTFGQGTKVEIKR | 0.375 nM | 2.01 nM | 0.101 nM |
| humanized antibody huC1H1-V1 (antibody, human IgG2, kappa, V domains shown, Human IgG2 / kappa) VH: EVQLVESGGGLVKPGGSLRLSCAASGFTFSNYGISWVRQAPGKGLEWVASISSGGDNTYYPDNVKGRFTISRDNAKNSLYLQMNSLRAEDTAVYYCARAGEKAMDYWGQGTLVTVSS VL: EIVLTQSPATLSLSPGERATLSCRASQTINNNLHWYQQKPGQAPRLLIKYASQSISGIPARFSGSGSGTDFTLTISSLEPEDFAVYFCQQFSSWPLTFGGGTKVEIKR | 4.95 nM | 7.91 nM | 0.574 nM |
| humanized antibody huC1H1-V2 (antibody, human IgG2, kappa, V domains shown, Human IgG2 / kappa) VH: EVQLVESGGGLVKPGGSLRLSCAASGFTFSNYGISWVRQAPGKGLEWVSSISSGGDNTYYPDNVKGRFTISRDNAKNSLYLQMNSLRAEDTAVYYCARAGEKAMDYWGQGTLVTVSS VL: EIVLTQSPATLSLSPGERATLSCRASQTINNNLHWYQQKPGQAPRLLIKYASQSISGIPARFSGSGSGTDFTLTISSLEPEDFAVYFCQQFSSWPLTFGGGTKVEIKR | 4.64 nM | 6.1 nM | 0.424 nM |
| mouse anti-CD40 monoclonal antibody C1H1 (antibody, V domains shown, Parent mouse antibody from a hybridoma; the mouse constant regions are not; also called Mouse C1H1) VH: EVKLVESGGGLVKPGASLKLSCAASGFTFSNYGISWVRQTSDKRLEWVASISSGGDNTYYPDNVKGRFTISRENAKNTLYLQMSSLKSEDTALYYCARAGEKAMDYWGQGTSVTVSS VL: DIVLTQSPVTLSVTPGDSVSLSCRASQTINNNLHWYQQKSHESPRLLIKYASQSISGIPSRFSGSGSGTDFTLSINSVETEDFGIYFCQQFSSWPLTFGAGTKLELK | 1.44 nM | 6.46 nM | 0.141 nM |
| chimeric antibody C1H1 (antibody, human IgG1, kappa, V domains shown, also called Chimeric C1H1) VH: EVKLVESGGGLVKPGASLKLSCAASGFTFSNYGISWVRQTSDKRLEWVASISSGGDNTYYPDNVKGRFTISRENAKNTLYLQMSSLKSEDTALYYCARAGEKAMDYWGQGTSVTVSS VL: DIVLTQSPVTLSVTPGDSVSLSCRASQTINNNLHWYQQKSHESPRLLIKYASQSISGIPSRFSGSGSGTDFTLSINSVETEDFGIYFCQQFSSWPLTFGAGTKLELKR | 2.13 nM | 6.97 nM | 0.198 nM |
